# Measured values taken from the supplement of paper PMC12764529.
# ± gives the half width of the 95% confidence interval.
# Experiments:
# [1] = folding stability dG unfold (combined trypsin and chymotrypsin); higher = more stable
# Method in brief: (§1)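 Bayesian fitting of sequencing counts gave K50 for each design. Unfolding free energy followed by setting this against a sequence-predicted unfolded-state K50 and a shared folded-state K50, either per protease or with trypsin and chymotrypsin combined. The designs, under 80 residues and lacking cysteine, were digested in a PA-tagged cDNA display format at 11 threefold-diluted protease concentrations and without protease, and only those with AlphaFold2 dimer inter-PAE above 15 were kept.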
# [2] = folding stability dG unfold from chymotrypsin proteolysis; higher = more stable
# Method in brief: as §1
# [3] = folding stability dG unfold from trypsin proteolysis; higher = more stable
# Method in brief: as §1
Sequence,folding stability dG unfold [1],folding stability dG unfold [2],folding stability dG unfold [3]
SAGGSAGGSAGGETVTIVDKKTNKTITYNKETNEFTITTKNGKKKTIKVDSPEEALKALSAGGSAGGSAGGS [r10_849_TrROS_Hall],0.89 ± 0.12 kcal/mol,0.731 ± 0.1 kcal/mol,0.964 ± 0.02 kcal/mol
SAGGSAGGSAGGEVKILRVEEFEDGVVRVFVEGDDPVLVIELGPDGVILSIEEVDSSELSAGGSAGGSAGGS [r10_211_TrMRF],0.781 ± 0.085 kcal/mol,0.562 ± 0.034 kcal/mol,1.04 ± 0.044 kcal/mol
SAGGSAGGSAGGEVVVVPLPDGSYVVALPDGTVVVYNPETGRWEERRSEDVVIAPGRPDESAGGSAGGSAGG [r7_656_TrMRF],2.4 ± 0.03 kcal/mol,2.51 ± 0.031 kcal/mol,2.09 ± 0.061 kcal/mol
SAGGSAGGSAGGEYEIVKIEKVKNENGELYYKMIIKDKKTNKEIEIYMSLEELKKLKPKSAGGSAGGSAGGS [r10_326_TrROS_Hall],3.24 ± 0.18 kcal/mol,3.85 ± 0.16 kcal/mol,2.05 ± 0.047 kcal/mol
SAGGSAGGSAGGFIARIEYPDGNTRTINPGMSLDELRNLPPDQIRRVEVEPVPPVPDDEKSAGGSAGGSAGG [r7_190_TrROS],0.499 ± 0.079 kcal/mol,0.723 ± 0.023 kcal/mol,-0.225 ± 0.12 kcal/mol
SAGGSAGGSAGGFNIKLDVEIDPENYVIKNKLEVRDGGEERRFEMWIPIRVPPADPDDPSAGGSAGGSAGGS [r10_1049_TrROS],0.852 ± 0.21 kcal/mol,1.39 ± 0.27 kcal/mol,-0.135 ± 0.29 kcal/mol
SAGGSAGGSAGGFYDPNGKWRIKIKPEVFEFPNYRFIKMKIEVDGRPIMEMPMLIPPNDSAGGSAGGSAGGS [r10_628_TrROS],2.73 ± 0.34 kcal/mol,2.45 ± 0.16 kcal/mol,3.41 ± 0.31 kcal/mol
SAGGSAGGSAGGGELKYRTLTVDLPVDDPDGRKLPRRLVITFPASNPELAEAFLKALGYSAGGSAGGSAGGS [r10_1062_TrMRF],1.52 ± 0.034 kcal/mol,1.75 ± 0.021 kcal/mol,1.11 ± 0.012 kcal/mol
SAGGSAGGSAGGGFYVKEIKGVKFGDKTLYIIRVYDDKGNEVFDVVAPPEVLKNLPPEVLSAGGSAGGSAGG [r7_263_TrMRF],1.52 ± 0.045 kcal/mol,1.79 ± 0.037 kcal/mol,1.04 ± 0.015 kcal/mol
SAGGSAGGSAGGGKVTAVVTFTGPDGSKVVLAFHPDGSVTVRYFDPNGELVGEKTFAGAGSAGGSAGGSAGG [r7_544_TrMRF],4.27 ± 0.14 kcal/mol,4.56 ± 0.1 kcal/mol,3.2 ± 0.19 kcal/mol
SAGGSAGGSAGGGLASEPVEIVEILSVTLVPEANVEVVTVKLPNPGELVTVPASAVPPGLSAGGSAGGSAGG [r7_304_JUSTAS],1.69 ± 0.085 kcal/mol,1.16 ± 0.048 kcal/mol,2.07 ± 0.13 kcal/mol
SAGGSAGGSAGGGMPSVTVTPVTLTVPTEVLVDGGPLLREREVRLTVITYPYTNTVVVDSAGGSAGGSAGGS [r10_533_JUSTAS],0.23 ± 0.099 kcal/mol,0.494 ± 0.16 kcal/mol,-0.474 ± 0.2 kcal/mol
SAGGSAGGSAGGGMRTVTTVSSFTFEKNGGEKFVTTTVVVPLYVPPRVFPPPENIELLLLSAGGSAGGSAGG [r17_454_JUSTAS],1.61 ± 0.26 kcal/mol,1.36 ± 0.27 kcal/mol,2.45 ± 0.33 kcal/mol
SAGGSAGGSAGGGMSIEEVKAKIEEEVGVEVSIEKVSGNTYKITLPKNNETYTIKIPKKSAGGSAGGSAGGS [r10_1032_JUSTAS],0.373 ± 0.25 kcal/mol,-0.126 ± 0.3 kcal/mol,0.396 ± 0.062 kcal/mol
SAGGSAGGSAGGGMTTTTETTTTTFPTNNLTTTTTTTTTLETSTGTTLSSTSTTTVTASSAGGSAGGSAGGS [r10_469_JUSTAS],1.2 ± 0.072 kcal/mol,0.234 ± 0.12 kcal/mol,1.96 ± 0.18 kcal/mol
SAGGSAGGSAGGGMVLKTEPVVITSTSTAPTEDGKWITTTSTLVVTKELILPSTLPGLLSAGGSAGGSAGGS [r10_1133_JUSTAS],0.34 ± 0.096 kcal/mol,0.276 ± 0.11 kcal/mol,0.173 ± 0.028 kcal/mol
SAGGSAGGSAGGGNMTITVMIPIEIPVFKYDGGKPEFEPFPIYIMVEVTVPEGAPLEEFSAGGSAGGSAGGS [r10_633_TrROS],1.79 ± 0.068 kcal/mol,1.49 ± 0.027 kcal/mol,2.1 ± 0.076 kcal/mol
SAGGSAGGSAGGGNPFLVRTEFFTLPDNTVIRRLAVVHSDGSLSVFPSLLPVPPNSLKLSAGGSAGGSAGGS [r10_280_TrMRF],0.914 ± 0.053 kcal/mol,1.18 ± 0.087 kcal/mol,0.412 ± 0.041 kcal/mol

Sequence,folding stability dG unfold [1],folding stability dG unfold [2],folding stability dG unfold [3]
SAGGSAGGSAGGGRRLVLVKVPPDVPEEVIREFARRLVEEGVPEPVVVERLEDDYALVLVSAGGSAGGSAGG [r7_283_TrMRF],1.01 ± 0.17 kcal/mol,1.23 ± 0.24 kcal/mol,0.861 ± 0.21 kcal/mol
SAGGSAGGSAGGGRTYTFTLPDGTVLTVTADDMTEEEIRAKLEAEGGEIVEITVEPGLSSAGGSAGGSAGGS [r10_572_JUSTAS],2.86 ± 0.07 kcal/mol,2.991 ± 0.018 kcal/mol,2.43 ± 0.034 kcal/mol
SAGGSAGGSAGGGSIVIENPEKGLTLTYDPATGNVTITFPGGERKVSPVGSIEKAKELLSAGGSAGGSAGGS [r10_849_JUSTAS],1.02 ± 0.06 kcal/mol,1.15 ± 0.028 kcal/mol,0.787 ± 0.059 kcal/mol
SAGGSAGGSAGGGSMPLLTETRKSLVVDPETGRLREVTTTTIRFPDRNTSQVTTTVTPVSSAGGSAGGSAGG [r7_196_JUSTAS],0.41 ± 0.14 kcal/mol,0.139 ± 0.081 kcal/mol,0.771 ± 0.063 kcal/mol
SAGGSAGGSAGGGSMPVKEEVIVEVDPTEVPVTLVTTTVVKTYPDGSVEETVTVEVKLVSAGGSAGGSAGGS [r10_598_JUSTAS],0.777 ± 0.18 kcal/mol,0.281 ± 0.059 kcal/mol,0.818 ± 0.085 kcal/mol
SAGGSAGGSAGGGSVSGSTPLTLPDSPVTRYSYPDSLVTFVPEKGVVITVSGSSTTVALSAGGSAGGSAGGS [r10_559_JUSTAS],0.654 ± 0.11 kcal/mol,0.44 ± 0.077 kcal/mol,0.825 ± 0.03 kcal/mol
SAGGSAGGSAGGGSVTLKRPGGSEVTLPDVTADSTITTLPDGTTVVTIPGTGKTYVVPSSAGGSAGGSAGGS [r10_1035_JUSTAS],0.495 ± 0.093 kcal/mol,0.111 ± 0.2 kcal/mol,0.604 ± 0.03 kcal/mol
SAGGSAGGSAGGGWIYMVTIEPKEVKRSPDPGGKGRPTFEFEMDITIIWIRVDPEDLDDSAGGSAGGSAGGS [r10_654_TrROS],3.76 ± 0.15 kcal/mol,4.14 ± 0.073 kcal/mol,2.85 ± 0.13 kcal/mol
SAGGSAGGSAGGGYTLVTVTLRSPTPTEEVVEEKYPPSVPLEEVKAKYEPLGWEVSFDLLSAGGSAGGSAGG [r7_226_JUSTAS],0.832 ± 0.061 kcal/mol,0.422 ± 0.13 kcal/mol,0.936 ± 0.025 kcal/mol
SAGGSAGGSAGGHKIDIEWERYEDGMYRVTITIRSNNGPRKIPFWVPPGYETADDILKQISAGGSAGGSAGG [r7_75_TrROS],1.88 ± 0.18 kcal/mol,1.71 ± 0.066 kcal/mol,1.8 ± 0.075 kcal/mol
SAGGSAGGSAGGIDFPEKGFVVVVTFPDGSKAEFEVPSDRPLVLNETAGDVTVDEIREKDSAGGSAGGSAGG [r7_542_TrMRF],0.458 ± 0.13 kcal/mol,-0.125 ± 0.18 kcal/mol,0.955 ± 0.14 kcal/mol
SAGGSAGGSAGGIEIRGPNGAELKIESDPDWGMVSIEMPGNRQEIQIPIPLPKPDPEDKNSAGGSAGGSAGG [r7_383_TrROS],0.568 ± 0.072 kcal/mol,0.22 ± 0.031 kcal/mol,0.838 ± 0.038 kcal/mol
SAGGSAGGSAGGIHIPAYEAIDFAKENADNGEPVPIEVHNPGNGKPEEREITPDDLDKISAGGSAGGSAGGS [r10_779_TrROS],0.454 ± 0.06 kcal/mol,0.428 ± 0.016 kcal/mol,0.402 ± 0.039 kcal/mol
SAGGSAGGSAGGIKIERDPNYWVIEIEIPIYMPQPDPDGEIKEPKPIAPITITILIPPGGSAGGSAGGSAGG [r7_3_TrROS],2.21 ± 0.2 kcal/mol,2.22 ± 0.11 kcal/mol,2.09 ± 0.17 kcal/mol
SAGGSAGGSAGGIPPDVKVKPVATVNLTAEVEVTVLGPEGGPTFTVKVEVKVVFAESTDSAGGSAGGSAGGS [r10_758_TrMRF],2.11 ± 0.26 kcal/mol,2.57 ± 0.24 kcal/mol,1.51 ± 0.37 kcal/mol
SAGGSAGGSAGGITLEEILKLIKDQPPGETRMIRLPGNGYTIQIYYEDNQLEIDIEPVKDSAGGSAGGSAGG [r7_448_TrROS],1.41 ± 0.078 kcal/mol,1.57 ± 0.032 kcal/mol,1.06 ± 0.029 kcal/mol
SAGGSAGGSAGGKAKIEMESETIPFKNDDGEKYYIQIMRFEVEVGGKKVTATAISIMPLDSAGGSAGGSAGG [r7_248_TrROS],2.98 ± 0.4 kcal/mol,3.53 ± 0.16 kcal/mol,2.22 ± 0.22 kcal/mol
SAGGSAGGSAGGKEPKKVKVYLFNENGELIGVFELEVETLEELEEAVRKLGFLAVVEPESAGGSAGGSAGGS [r10_958_TrMRF],4.4 ± 0.077 kcal/mol,4.43 ± 0.069 kcal/mol,4.14 ± 0.096 kcal/mol
